# Data from patent US20130143227A1 (University of Texas, published 2013).
# T1: FLAG-LGR6 (human LGR6, predicted mature form aa25-967, N-terminal FLAG tag), expressed on HEK293 cells (human, UniProt Q9HBX8 26-967)
# T1 sequence: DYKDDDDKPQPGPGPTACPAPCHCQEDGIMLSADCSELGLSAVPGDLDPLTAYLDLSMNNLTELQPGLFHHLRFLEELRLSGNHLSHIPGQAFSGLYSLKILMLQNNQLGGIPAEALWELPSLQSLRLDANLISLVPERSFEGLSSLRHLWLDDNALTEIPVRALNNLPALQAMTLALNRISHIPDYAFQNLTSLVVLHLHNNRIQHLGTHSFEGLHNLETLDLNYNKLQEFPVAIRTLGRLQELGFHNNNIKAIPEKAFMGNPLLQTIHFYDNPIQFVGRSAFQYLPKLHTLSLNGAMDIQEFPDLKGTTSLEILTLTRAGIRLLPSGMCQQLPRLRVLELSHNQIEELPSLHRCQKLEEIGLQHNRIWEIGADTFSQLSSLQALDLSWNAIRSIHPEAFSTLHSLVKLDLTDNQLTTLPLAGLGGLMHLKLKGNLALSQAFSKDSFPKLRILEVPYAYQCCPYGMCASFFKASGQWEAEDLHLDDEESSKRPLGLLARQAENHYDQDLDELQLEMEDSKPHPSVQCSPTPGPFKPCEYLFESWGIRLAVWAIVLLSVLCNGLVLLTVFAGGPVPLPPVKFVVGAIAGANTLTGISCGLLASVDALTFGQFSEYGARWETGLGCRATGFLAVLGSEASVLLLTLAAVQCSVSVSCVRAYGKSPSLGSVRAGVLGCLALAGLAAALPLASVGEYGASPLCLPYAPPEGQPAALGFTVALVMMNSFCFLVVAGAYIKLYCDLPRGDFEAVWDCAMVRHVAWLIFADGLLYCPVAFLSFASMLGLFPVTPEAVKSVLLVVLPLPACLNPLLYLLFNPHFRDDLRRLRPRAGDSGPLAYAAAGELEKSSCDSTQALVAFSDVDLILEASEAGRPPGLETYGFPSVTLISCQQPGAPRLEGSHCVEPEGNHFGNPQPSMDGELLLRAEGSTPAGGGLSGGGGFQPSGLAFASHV
# T2: Myc-LGR4 (mouse LGR4, predicted mature form aa23-951, N-terminal Myc tag), expressed on HEK293 cells (mouse, UniProt A2ARI4 23-951)
# T2 sequence: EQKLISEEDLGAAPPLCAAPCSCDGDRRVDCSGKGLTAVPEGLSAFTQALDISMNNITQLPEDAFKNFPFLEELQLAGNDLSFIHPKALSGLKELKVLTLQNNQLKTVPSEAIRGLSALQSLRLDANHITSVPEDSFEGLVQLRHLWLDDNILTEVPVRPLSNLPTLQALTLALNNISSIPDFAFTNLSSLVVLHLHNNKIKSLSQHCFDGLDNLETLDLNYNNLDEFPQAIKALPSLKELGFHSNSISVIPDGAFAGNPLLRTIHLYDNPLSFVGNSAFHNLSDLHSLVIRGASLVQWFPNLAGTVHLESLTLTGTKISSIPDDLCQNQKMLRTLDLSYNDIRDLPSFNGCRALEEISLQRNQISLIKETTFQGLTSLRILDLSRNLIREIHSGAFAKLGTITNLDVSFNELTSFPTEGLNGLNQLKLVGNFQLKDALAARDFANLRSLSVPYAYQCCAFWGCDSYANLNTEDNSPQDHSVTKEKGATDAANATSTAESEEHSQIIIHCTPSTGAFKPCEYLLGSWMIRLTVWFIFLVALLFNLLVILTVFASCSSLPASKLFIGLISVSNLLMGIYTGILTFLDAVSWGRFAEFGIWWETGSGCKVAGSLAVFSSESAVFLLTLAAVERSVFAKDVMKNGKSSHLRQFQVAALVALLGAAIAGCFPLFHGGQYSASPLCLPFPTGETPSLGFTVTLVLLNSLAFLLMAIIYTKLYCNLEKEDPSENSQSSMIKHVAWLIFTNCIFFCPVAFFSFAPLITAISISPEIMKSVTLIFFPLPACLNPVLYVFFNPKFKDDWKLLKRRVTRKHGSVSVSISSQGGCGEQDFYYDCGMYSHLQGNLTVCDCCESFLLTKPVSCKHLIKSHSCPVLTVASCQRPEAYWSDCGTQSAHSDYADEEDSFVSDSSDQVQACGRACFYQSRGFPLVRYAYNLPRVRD
# T3: Myc-LGR5 (human LGR5, predicted mature form aa21-907, N-terminal Myc tag), expressed on HEK293 cells (human, UniProt O75473 22-907)
# T3 sequence: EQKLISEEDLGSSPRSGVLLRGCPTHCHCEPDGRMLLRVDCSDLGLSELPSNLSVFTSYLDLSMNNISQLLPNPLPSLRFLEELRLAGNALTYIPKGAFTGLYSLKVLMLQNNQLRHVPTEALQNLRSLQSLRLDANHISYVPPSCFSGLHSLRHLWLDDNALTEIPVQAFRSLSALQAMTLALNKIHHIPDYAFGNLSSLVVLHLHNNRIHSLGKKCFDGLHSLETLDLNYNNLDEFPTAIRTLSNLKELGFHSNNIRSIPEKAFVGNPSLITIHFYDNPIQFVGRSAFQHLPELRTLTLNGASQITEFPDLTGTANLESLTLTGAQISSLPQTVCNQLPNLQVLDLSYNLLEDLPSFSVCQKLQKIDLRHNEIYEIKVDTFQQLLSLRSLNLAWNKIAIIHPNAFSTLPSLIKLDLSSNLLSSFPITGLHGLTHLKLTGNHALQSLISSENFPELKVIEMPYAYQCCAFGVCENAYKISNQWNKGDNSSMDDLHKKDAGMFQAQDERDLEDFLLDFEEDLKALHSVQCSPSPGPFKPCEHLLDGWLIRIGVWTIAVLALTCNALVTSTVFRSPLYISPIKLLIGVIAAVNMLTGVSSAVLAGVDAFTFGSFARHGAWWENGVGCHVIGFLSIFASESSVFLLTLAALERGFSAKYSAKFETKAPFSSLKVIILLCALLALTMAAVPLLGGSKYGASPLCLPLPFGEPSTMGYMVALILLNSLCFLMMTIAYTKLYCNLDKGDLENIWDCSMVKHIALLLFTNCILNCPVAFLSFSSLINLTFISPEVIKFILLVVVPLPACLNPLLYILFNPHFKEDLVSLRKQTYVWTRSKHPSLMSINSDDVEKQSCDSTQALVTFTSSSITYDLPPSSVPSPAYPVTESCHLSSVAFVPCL
# B1: recombinant human RSPO2 (ligand, UniProt Q6UXX9 22-243, looked up)
# chain: QGNRWRRSKRASYVSNPICKGCLSCSKDNGCSRCQQKLFFFLRREGMRQYGECLHSCPSGYYGHRAPDMNRCARCRIENCDSCFSKDFCTKCKVGFYLHRGRCFDECPDGFAPLEETMECVEGCEVGHWSEWGTCSRNNRTCGFKWGLETRTRQIVKKPVKDTILCPTIAESRRCKMTMRHCPGGKRTPKAKEKRNKKKKRKLIERAQEQHSVFLATDRANQ
# notes: Bought from R&D Systems; also called R-spondin 2
# B2: recombinant human RSPO1 (ligand, UniProt Q2MKA7 21-263, looked up)
# chain: SRGIKGKRQRRISAEGSQACAKGCELCSEVNGCLKCSPKLFILLERNDIRQVGVCLPSCPPGYFDARNPDMNKCIKCKIEHCEACFSHNFCTKCKEGLYLHKGRCYPACPEGSSAANGTMECSSPAQCEMSEWSPWGPCSKKQQLCGFRRGSEERTRRVLHAPVGDHAACSDTKETRRCTVRRVPCPEGQKRRKGGQGRRENANRNLARKESKEAGAGSRRRKGQQQQQQQGTVGPLTSAGPA
# notes: Bought from R&D Systems; also called R-spondin 1
# B3: recombinant human RSPO4 (ligand)
# chain: LNRRKKQVGTGLGGNCTGCIICSEENGCSTCQQRLFLFIRREGIRQYGKCLHDCPPGYFGIRGQEVNRCKKCGATCESCFSQDFCIRCKRQFYLYKGKCLPTCPPGTLAHQNTRECQGECELGPWGGWSPCTHNGKTCGSAWGLESRVREAGRAGHEEAATCQVLSESRKCPIQRPCPGERSPGQKKGRKDRRPRKDRKLDRRLDVRPRQPGLQP
# notes: Bought from R&D Systems; also called R-spondin 4
# B4: recombinant human RSPO3 (ligand)
# chain: QNASRGRRQRRMHPNVSQGCQGGCATCSDYNGCLSCKPRLFFALERIGMKQIGVCLSSCPSGYYGTRYPDINKCTKCKADCDTCFNKNFCTKCKSGFYLHLGKCLDNCPEGLEANNHTMECVSIVHCEVSEWNPWSPCTKKGKTCGFKRGTETRVREIIQHPSAKGNLCPPTNETRKCTVQRKKCQKGERGKKGRERKRKKPNKGESKEAIPDSKSLESSKEIPEQRENKQQQKKRKVQDKQKSVSVSTVH
# notes: Bought from R&D Systems; also called R-spondin 3
# Target: T1, FLAG-LGR6 (human LGR6, predicted mature …)
# Experiment: cell-based or functional assay
row,"fold change of EC50 against vector-transfected cells, β-catenin reporter",Binder
1,20 fold,B1
2,20 fold,B2

# Target: T2, Myc-LGR4 (mouse LGR4, predicted mature …)
# Experiment: cell-based or functional assay
"potency (EC50, nM), β-catenin reporter (Super 8x TOPFlash) with Wnt3a CM","maximum effect (Emax, fraction of vector control), β-catenin reporter",Binder
0.09 nM,,B3
0.0003 nM,0.9 fraction of vector control,B1
0.02 nM,,B2
0.02 nM,0.9 fraction of vector control,B4

# Target: T3, Myc-LGR5 (human LGR5, predicted mature …)
# Experiment: cell-based or functional assay
"potency (EC50, nM), β-catenin reporter (Super 8x TOPFlash) with Wnt3a CM","maximum effect (Emax, fraction of vector control), β-catenin reporter",Binder
0.4 nM,,B3
0.001 nM,1 fraction of vector control,B1
0.008 nM,,B2
0.01 nM,1.1 fraction of vector control,B4

# Target: T1, FLAG-LGR6 (human LGR6, predicted mature …)
# Experiment: cell-based or functional assay
# Remark: another data set of the same source
"maximum effect (Emax, fraction of vector control), β-catenin reporter","potency (EC50, nM), β-catenin reporter (Super 8x TOPFlash) with Wnt3a CM",Binder
0.5 fraction of vector control,0.01 nM,B1
,0.03 nM,B2
0.5 fraction of vector control,0.05 nM,B4

# Target: T2, Myc-LGR4 (mouse LGR4, predicted mature …)
# Experiment: whole-cell fluorescence competition binding, displacement of mRSPO1-Fc (~5 nM) from HEK293 cells expressing Myc-LGR4
# Protocol: (§1) A fluorescence-based whole-cell competition binding assay was developed to determine whether purified, recombinant RSP01-4 could compete with mRSPO1-Fc for binding to LGR4-6. HEK293 cells stably expressing Myc-LGR4, Myc-LGR5, or FLAG-LGR6 were seeded into poly-D-lysine-coated 96-well black/clear bottom plates (Becton Dickinson) at ˜60,000 cells/well. After overnight culturing, the plates were chilled on ice for 5 min, media were removed from each well, and the cells were washed twice with cold PBS. The recombinant RSPOs under investigation were diluted in 3-fold serial dilutions in cold OPTI-MEM®+0.5% BSA and added onto the cells at 50 μl/well, followed immediately by the addition of equal volume of mRSPO1-Fc diluted by 1:100 in the same buffer. The cells were the incubated for 3.5 hrs at 4° C. with gentle agitation, followed by three quick washes with cold PBS. The cells were then fixed in 4% paraformaldehyde/PBS for 15 min at room temperature and washed 3× with PBS. The cells were further incubated with Alexa Fluor® 647-labeled goat anti-mouse IgG (H+L) (Invitrogen, diluted by 1:200) in OPTI-MEM®+0.5% BSA for 1 hr at room temperature. The cells were washed thrice with PBS and fluorescence intensity was measured using a Tecan M1000 plate reader with excitation at 630 nm and emission at 670 nm. All experiments were performed at least twice with quadruplicate replicates in each experiment. HEK293 cells stably expressing Myc-LGR4 (shown in FIG. 4B), Myc-LGR5 (shown in FIG. 4C), or FLAG-LGR6 (shown in FIG. 4D) were incubated with mRSPO1Fc at ˜5 nM plus serial dilutions of purified recombinant RSPO1-4 for 3-4 hrs at 4° C. Binding of mRSPO1-Fc was detected with Alexa Fluor® 647-labeled anti-mouse IgG. Maximum specific binding is defined by the difference between the data of with and without mRSPO1-Fc which is approximately 50% of total binding in general. All error bars are S.E.M. (n=4). […] As shown in FIGS. 4B-D, RSPO1-4 were able to completely displace the binding of mRSPO1-Fc to LGR4-6 with IC50's in the nM range, the one exception was the μM IC50's for RSPO3 (SEQ ID NO:46; SEQ ID NO:47) and RSPO4 (SEQ ID NO:48; SEQ ID NO:49) binding to LGR4.
row,IC50,Binder
1,228 nM,B3
2,2.3 nM,B1
3,25 nM,B2
4,126 nM,B4

# Target: T3, Myc-LGR5 (human LGR5, predicted mature …)
# Experiment: whole-cell fluorescence competition binding, displacement of mRSPO1-Fc (~5 nM) from HEK293 cells expressing Myc-LGR5
# Protocol: as §1
row,IC50,Binder
1,11 nM,B3
2,0.5 nM,B1
3,4 nM,B2
4,2.1 nM,B4

# Target: T1, FLAG-LGR6 (human LGR6, predicted mature …)
# Experiment: whole-cell fluorescence competition binding, displacement of mRSPO1-Fc (~5 nM) from HEK293 cells expressing FLAG-LGR6
# Protocol: as §1
row,IC50,Binder
1,7.7 nM,B3
2,0.5 nM,B1
3,3.3 nM,B2
4,1.3 nM,B4
